Experimental data from patent publication US20240368617A1, “NPR1 VARIANT TO ENHANCE PLANT RESISTANCE TO BIOTIC AND ABIOTIC STRESSES AND METHOD THEREOF” (Duke University, published 2024).
Residue numbers refer to the chain shown, from its start. Names and notes keep the numbering of the source.

How the values were obtained:
npr1(dim)-HA = target: T1, npr1(dim)-HA (Arabidopsis thaliana, UniProt P93002 1-593); assay: co-immunoprecipitation of GFP- and HA-fused proteins with anti-HA beads, N. benthamiana, with and without SA
T1 construct: also called L49D/F53D/V56D/V83K; not shown: C-terminal HA tag from vector pLN462
T1 chain: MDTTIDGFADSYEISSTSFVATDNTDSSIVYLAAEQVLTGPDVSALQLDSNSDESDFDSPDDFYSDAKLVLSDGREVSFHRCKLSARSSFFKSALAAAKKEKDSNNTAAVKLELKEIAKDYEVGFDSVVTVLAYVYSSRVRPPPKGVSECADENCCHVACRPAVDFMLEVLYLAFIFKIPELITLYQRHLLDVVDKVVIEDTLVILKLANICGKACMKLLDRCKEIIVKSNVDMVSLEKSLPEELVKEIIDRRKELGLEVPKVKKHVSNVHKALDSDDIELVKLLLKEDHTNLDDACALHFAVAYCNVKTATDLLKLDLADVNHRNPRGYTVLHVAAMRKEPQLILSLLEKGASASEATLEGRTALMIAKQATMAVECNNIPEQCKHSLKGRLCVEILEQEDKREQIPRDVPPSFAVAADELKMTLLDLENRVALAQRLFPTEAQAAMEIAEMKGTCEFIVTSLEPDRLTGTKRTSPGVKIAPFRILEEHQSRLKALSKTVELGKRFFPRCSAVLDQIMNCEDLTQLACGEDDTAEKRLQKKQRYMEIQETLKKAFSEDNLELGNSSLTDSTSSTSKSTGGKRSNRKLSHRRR
Description: (§1) For plant transformations, the Agrobacterium tumefaciens strain GV3101 was transformed with plant binary vectors carrying the indicated transgenes. For stable expression in Arabidopsis, a floral dipping method was used. For transient expression in N. benthamiana, the Agrobacterium carrying the indicated construct was cultured over-night at 28° C. in LB broth medium supplemented with appropriate antibiotics: spectinomycin (100 μg ml-1), kanamycin (50 μg ml-1), gentamycin (50 μg ml-1) and rifampicin (25 μg ml-1). The obtained culture was re-inoculated at 1:10 into fresh growth medium with antibiotics and grown for another 4 h. Cells were then centrifuged at 1,600g for 10 min, and inoculum was prepared by resuspending cells to an OD600 of 1 in double-distilled water containing 200 μM acetosyringone (Sigma-Aldrich). The co-expression assays were per-formed with a 1:1 mixture of Agrobacteria inoculums. The inoculum was pressure-infiltrated into N. benthamiana leaves at the abaxial side using 1 ml syringe without the needle.
Recombinant protein analysis, co-immunoprecipitation and cell-free oligomerization were performed using total protein extracts from the transient expression assay in N. benthamiana as described previously. […]

[1] = target: the molecule itself; assay: size-exclusion chromatography (later elution than WT) and low-resolution cryo-EM (single-wing shape)
npr1(L284D)-HA = target: T2, npr1(L284D)-HA (Arabidopsis thaliana, UniProt P93002 1-593); assay: co-immunoprecipitation after transient co-expression in N. benthamiana
T2 construct: not shown: C-terminal HA tag from vector pLN462
T2 sequence: T1 chain with D49L, D53F, D56V, K83V, L284D
Description: as §1
(§2) Recombinant protein analysis, co-immunoprecipitation and cell-free oligomerization were performed using total protein extracts from the transient expression assay in N. benthamiana as described previously. Interaction analysis of NPR1-HA with TGA3-mRFP or NPR1-GFP (self-interaction), was performed in vivo by transiently co-expressing the two proteins in N. benthamiana followed by treatment with water (mock) or 1 mM SA for 5 h. Total protein was extracted and used for co-immunoprecipitation with anti-RFP or anti-HA beads, respectively. In the NPR1-HA/TGA3-mRFP interaction experiments the npr1-1-HA was used as a negative control. Interaction between GST-NPR1 and Myc-CUL3A was performed by co-expression in E. coli as described. For western blotting under reducing conditions, the SDS sample buffer was added to the protein extracts from a 4× stock solution supplemented with 50 mM DTT and 715 mM B-mercaptoethanol. For western blotting under non-reducing conditions, a DDT-and B-mercaptoethanol-free SDS sample buffer was used. […]

npr1(L281D)-HA = target: T3, npr1(L281D)-HA (Arabidopsis thaliana, UniProt P93002 1-593); assay: as above
T3 construct: not shown: C-terminal HA tag from vector pLN462
T3 sequence: T1 chain with D49L, D53F, D56V, K83V, L281D
Description: as §1, §2

npr1(A151P/D152R)-HA = target: T4, npr1(A151P/D152R)-HA (Arabidopsis thaliana, UniProt P93002 1-593); assay: as above
T4 construct: not shown: C-terminal HA tag from vector pLN462
T4 sequence: T1 chain with D49L, D53F, D56V, K83V, A151P, D152R
Description: as §1, §2

B1: npr1(dim)-GFP (other)
chain: T1 chain
notes: also called L49D/F53D/V56D/V83K; not shown: C-terminal eGFP from vector pK7FWG2
B1: no binding (npr1(dim)-HA).

B2: npr1(dim) mutant (L49D/F53D/V56D/V83K) with C-terminal Strep tag, expressed in insect cells (other)
chain: T1 chain
notes: Full-length; His10-GST removed; Monomeric by size exclusion and low-resolution cryo-EM; not shown: C-terminal Strep tag
B2: no binding [1].

B3: TGA3-mRFP (other, Arabidopsis thaliana, UniProt Q39234 1-384, looked up)
chain: MEMMSSSSSTTQVVSFRDMGMYEPFQQLSGWESPFKSDINNITSNQNNNQSSSTTLEVDARPEADDNNRVNYTSVYNNSLEAEPSSNNDQDEDRINDKMKRRLAQNREAARKSRLRKKAHVQQLEESRLKLSQLEQELVRARQQGLCVRNSSDTSYLGPAGNMNSGIAAFEMEYTHWLEEQNRRVSEIRTALQAHIGDIELKMLVDSCLNHYANLFRMKADAAKADVFFLMSGMWRTSTERFFQWIGGFRPSELLNVVMPYVEPLTDQQLLEVRNLQQSSQQAEEALSQGLDKLQQGLVESIAIQIKVVESVNHGAPMASAMENLQALESFVNQADHLRQQTLQQMSKILTTRQAARGLLALGEYFHRLRALSSLWAARPREHT
notes: Transiently co-expressed in N. benthamiana; pulled down with anti-RFP beads; also called AtTGA3; AT1G22070; not shown: C-terminal mRFP from vector pSITE-4NB
B3: no binding (npr1(L284D)-HA); no binding (npr1(L281D)-HA); no binding (npr1(A151P/D152R)-HA).
